Here are results for seven molecules from patent US20080234188A1, “Antimicrobial Peptides” (The Hospital for Sick Children, priority 2001, published 2008).

Where no end group is shown, it is not given here.

The nature of the data set: Hydrophobicity (hydropathy) from reverse-phase HPLC retention scale. Type of data set: physicochemical. Set-up: key to Hydropathy: hydropathy scale from HPLC retention times of model peptides (Table 1). The settings on record: Table 1; for Hydropathy: of the X-residue, from HPLC retention of KKAAAXAAAAAXAAWAAXAAAKKKK-amide peptides. From the text: The “hydrophobicity value” of an amino acid residue means the hydrophobicity value of that residue as shown in Table 1 or as calculated by the method described herein.
The “hydrophobicity value” of an amino acid sequence or peptide means the arithmetic average of the individual hydrophobicity values of the constituent amino acid residues of the sequence.
Various hydrophobicity scales for proteins and amino acids have been described in the literature but the inventors have established the hydrophobicity scale of Table 1 based on the retention times on HPLC of a series of hydrophobic model peptides, as described in Liu and Deber (1998), Biopolymers (Peptide Science), v. 47, pp. 41-62).
The hydrophobicity value shown for each amino acid in Table 1 as “hydropathy” may be used as the hydrophobicity value for that amino acid in any peptide whose hydrophobicity value has to be calculated. The “average hydrophobicity” of a peptide containing amino acids shown in Table 1 is calculated by determining the arithmetic average of the Table 1 “hydropathy” values for the constituent amino acids of the sequence.
Peptides in accordance with the invention may also include other amino acids. For an amino acid not included in Table 1, the hydrophobicity value may be determined by the same method as described herein for obtaining the values of Table 1. For example, a peptide such as KKAAAXAAAAAXAAXAAXAAAKKKK-amide (Sequence ID No: 1) may be synthesized, where X is the amino acid whose hydrophobicity value is to be determined, and the retention time of the peptide on HPLC is determined, as described in the Examples. Similar peptides where X is Lys or Phe are also prepared and their HPLC retention times determined. The retention time, Rx, is converted to the hydropathy value H for the selected amino acid using the equation
H=(10×ΔtRx-Lys/ΔtRPhe-Lys)−5.00
where ΔtRx-Lys=retention time difference in minutes between Rx and the retention time of the most hydrophilic peptide tested (X=Lys) and where ΔtRPhe-Lys=retention time difference in minutes between the most hydrophobic peptide tested (X=Phe) and the most hydrophilic (X=Lys).
The retention time of each peptide was determined on a C4 reversed-phase column (4.6×250 mm, 300 A pore size, 10 μ particle size). Equal amounts of each peptide were injected into the column and eluted at a flow rate of 1 mL/min, utilizing a linear AB gradient (2% B/min), where buffer A was 0.1% TFA/ddH2O, and buffer B was 0.1% TFA/acetonitrile. The retention time of each peptide reported here was the average of triplicate measurements.

With “Pro: KKAAAXAAAAAXAAWAAXAAAKKKK-amide peptide with X-residue Pro (KKAAAPAAAAAPAAWAAPAAAKKKK-NH2)”, the “Mean residue hydropathy of X-residue peptide” value (“Mean residue hydropathy” below) is recorded as −0.39 and the Hydropathy is reported as −4.92.
With “Asp: KKAAAXAAAAAXAAWAAXAAAKKKK-amide peptide with X-residue Asp (KKAAADAAAAADAAWAADAAAKKKK-NH2)”, the “Mean residue hydropathy” value is given as 0.00 and the Hydropathy is listed as −2.49.
For the molecule “K25: KKAAAXAAAAAXAAWAAXAAAKKKK-amide peptide with X = Lys, most hydrophilic peptide tested (KKAAAKAAAAAKAAWAAKAAAKKKK-NH2) [Peptide K25]”, the “Mean residue hydropathy” value is reported as −0.40 and the Hydropathy is on record as −5.00.
For “Glu: KKAAAXAAAAAXAAWAAXAAAKKKK-amide peptide with X-residue Glu (KKAAAEAAAAAEAAWAAEAAAKKKK-NH2)” the same measures were 0.16 and −1.49.
For `N=C(N)NCCC[C@H](N)C(=O)O` [Arg] the same measures were −0.05 and −2.77.
For “His: KKAAAXAAAAAXAAWAAXAAAKKKK-amide peptide with X-residue His (X = His; C-terminal amide)” the same measures were −0.34 and −4.63.
As for “Gln: KKAAAXAAAAAXAAWAAXAAAKKKK-amide peptide with X-residue Gln (KKAAAQAAAAAQAAWAAQAAAKKKK-NH2)”, the “Mean residue hydropathy” value is −0.04 and the Hydropathy was −2.75.
